According to article PMC6995573 (2019):
Where two headings read alike, the source gives them in different places.

T1: Human ornithine decarboxylase (human, UniProt P11926 2-421)
T1 chain: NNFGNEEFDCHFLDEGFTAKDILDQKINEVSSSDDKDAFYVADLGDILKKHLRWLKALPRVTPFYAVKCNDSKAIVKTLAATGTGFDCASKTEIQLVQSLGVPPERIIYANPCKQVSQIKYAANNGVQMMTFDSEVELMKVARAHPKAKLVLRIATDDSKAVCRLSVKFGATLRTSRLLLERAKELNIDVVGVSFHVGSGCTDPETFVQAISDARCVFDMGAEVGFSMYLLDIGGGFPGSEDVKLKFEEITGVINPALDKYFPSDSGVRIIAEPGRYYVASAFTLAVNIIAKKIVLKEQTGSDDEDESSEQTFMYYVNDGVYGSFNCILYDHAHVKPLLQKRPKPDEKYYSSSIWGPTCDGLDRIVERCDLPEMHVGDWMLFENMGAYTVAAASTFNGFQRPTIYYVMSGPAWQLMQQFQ


What was measured:
[1] = molecular target: T1, Human ornithine decarboxylase; experiment: inhibition of ODC enzyme activity
[2] = molecular target: T1, Human ornithine decarboxylase; experiment: inhibition of ODC enzyme activity
[3] = molecular target: T1, Human ornithine decarboxylase; experiment: AUC

| IC50 [1] [nM] | IC50 [2] [nM] | Kd [3] [nM] | Binder |
| --- | --- | --- | --- |
| 170 |  |  | AZ_(95–228)_D99A (domain or fragment) not shown |
| 190 |  |  | AZ_(95–228)_R100A (domain or fragment) not shown |
|  | 190 | 280 | AZ2 (natural protein) MINTQDSSILPLSNCPQLQCCRHIVPGPLWCSDAPHPLSKIPGGRGGGRDPSLSALIYKDEKLTVTQDLPVNDGKPHIVHFQYEVTEVKVSSWDAVLSSQSLFVEIPDGLLADGSKEGLLALLEFAEEKMKVNYVFICFRKGREDRAPLLKTFSFLGFEIVRPGHPCVPSRPDVMFMVYPLDQNLSDED |
| 160 |  |  | AZ_(95–228)_R121A (domain or fragment) not shown |
| 190 |  |  | AZ_(95–228)_D111A (domain or fragment) not shown |
| 160 |  |  | AZ_(95–228)_R114A (domain or fragment) not shown |
|  | 840 | 590 | AZ3_WT (natural protein) MPCKRCRPSVYSLSYIKRGKTRNYLYPIWSPYAYYLYCYKYRITLREKMLPRCYKSITYKEEEDLTLQPRSCLQCSESLVGLQEGKSTEQGNHDQLKELYSAGNLTVLATDPLLHQDPVQLDFHFRLTSQTSAHWHGLLCDRRLFLDIPYQALDQGNRESLTATLEYVEEKTNVDSVFVNFQNDRNDRGALLRAFSYMGFEVVRPDHPALPPLDNVIFMVYPLERDVGHLPSEPP |
| 180 |  |  | AZ_(95–228)_D98A (domain or fragment) not shown |
| 200 |  |  | AZ_(95–228)_E106A (domain or fragment) not shown |
| 190 |  |  | AZ_(95–228)_E105A (domain or fragment) not shown |
| 170 |  |  | AZ_(95–228)_D124A (domain or fragment) not shown |
